Test results as given in the supplement of paper PMC11502859.
Several values for one entry are separate records, joined by “and”; a condition that tells them apart may be missing. Equal entries are not always repeated.
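Also: lentiviral eGFP-IRES-mCherry reporter pool sorted by FACS 96 h post-transduction, gated on mCherry-high cells, Illumina read counts normalized per million, median across four biological replicates.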

ZNF28, sequence (chain, as listed by the source): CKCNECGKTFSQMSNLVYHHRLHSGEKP

The substances below were run on HEK293T (assay: median enrichment of reporter reads in eGFP-reduced (low/intermediate) vs eGFP-high sorted cells (eGFP-extension fusion abundance) (ratio); higher = stronger loss of eGFP-fusion protein abundance (more destabilising extension)).
With YQSVL [RNASE9] the median enrichment was 1.04. Work on “YQVAELGPLGQGAQATSSFVVTKQGSPFPFLLPYFVQRTRVIYIYICICLYPSPHLSDSALGTQLWAARGAVPCGSSCVCVPS [SCAMP5]” yielded a median enrichment of 8.36. YQVIAEQMNRPPASVANTRSISLGQWTNT [LCP2] was tested, and the median enrichment was 2.43. YRA [SYNE2] gave a median enrichment of 0.591. Substance YRCEGIGETLGWLVMVSIAGHQKLDS [B4GALNT2] has a median enrichment of 17.4. Substance YRDLQRPGQK [PEG10] has a median enrichment of 12. Substance “YRGPCRHHPPPSPCPQPVCPVPCPPQAWWWQWRRLRRLKRLTGRGAFCLAHCPDDPPAPSRLQQQSPRRTGWTEEKEVDCCTH [SOX10]” has a median enrichment of 3.52. For “YRGRPGTGGMSCRPQPGRTPHSLSRQRGQNRPAQPWSPLHSPRPLAPALPTSSAWSEGAARAQQRRGGRLWPPTSRPVPAGTA [ARHGAP39]”, the median enrichment was 7.75. Work on YRHLVVFWEQKNYFLLTRLFVLKTIFLNLS [EP300] yielded a median enrichment of 14. Substance YRHQVW [SMAD3] has a median enrichment of 1.22. YRKGW [C9orf131] showed a median enrichment of 0.926. Substance YRKVSVSPNPHSNEF [GPR22] has a median enrichment of 41.8. “YRLFVHYCFHFVPRVKQTTEKSNQVITYPSAGDFDY [ZBBX]” showed a median enrichment of 10.1. With YRLLSKHRFSR [Degron FEM1A/C] the median enrichment was 5.74. In the case of YRMETQKT [USH2A], the median enrichment is reported as 0.809. With YRNLENYTCFSEIITEYT [ABCD3] the median enrichment was 11.4. Substance “YRNSEVQPLENNIQEGHIDYKLMSCPICNSGS [FRRS1]” has a median enrichment of 25.3. Work on YRNSNPGVPV [INPP1] yielded a median enrichment of 0.415. Substance YRQK [CCR2] has a median enrichment of 0.225. In the case of YRRIYVLFKQEKVTLPMLSPLHNI [CDH10], the median enrichment is reported as 8.74. Work on “YRRLPRAPPHSMTRLWIPHCTSHSPLSAPSPPCWSCSHTPGTGLGHPLLPACVFLILGRPG [KRT71]” yielded a median enrichment of 6.31. Substance YRRQRAWCDLVGSGNGRKRSPP [BTBD9] has a median enrichment of 6.86. With YRSAVQENVMLGTPSSVVLASHASAAELAE [DEFA4] the median enrichment was 2.45. Work on “YRSRHLPQTWGGGPASSSTTLAPSLLTWVLAF [SCRIB]” yielded a median enrichment of 13.1. In the case of YRTDVE [HEY1], the median enrichment is reported as 0.613. For YRTGIHEQKAESQTCLS [CD5], the median enrichment was 0.587. With YRTM [IAPP] the median enrichment was 0.785. “YSASSNLVFSKKNIYYLFLACHFNSSRDFTAGIF [RBM48]” was tested, and the median enrichment was 41.8. YSCVVKINMRKLPCNLNLGFPCNRN [IL23R] was tested, and the median enrichment was 22.3. Work on YSCVVSLLEIELA [DGKB] yielded a median enrichment of 7.27. YSFKSNRIIFHLAVVRSN [SS18L2] gave a median enrichment of 12.1. Work on YSFTNQVP [SMAD2] yielded a median enrichment of 0.532. “YSGLPVASSSTTELQTNHPKCRLDGEGKDWGGRVNSEGCPLPIPPGP [PODXL]” was tested, and the median enrichment was 21.5. “YSHPPPLGVPNVPSAVPAAAPLHPQLHHPLSHSRSCTPAFQLCPRGF [PRKCG]” gave a median enrichment of 3.59. YSPQAD [YAP1] gave a median enrichment of 0.413. With “YSPTPTAAYLHFQFLRGTEASSQHAANLWSLILTPSPTPVVGLYYV [KIF5A]” the median enrichment was 6.66. In the case of YSQERWKQVTSTIA [OR5K1], the median enrichment is reported as 7.21. YSQILALLSG [CHRNA9] was tested, and the median enrichment was 12.2. Work on YSQLKECEILNY [MTREX] yielded a median enrichment of 1.31. For “YSQPQLMPSQSQPPVTPSQSQPRVTPSQSQPHVTPYRSKSGKQKQSVPIPKTVSRKGTLKK [ADAM29]”, the median enrichment was 0.413. For “YSQRGGQSQSQLLSCPLLPARALVLTPSCIPHLRSVY [SLC2A11]”, the median enrichment was 11.1. For “YSQTNTPYVSVNPCYLSRVCYFPSHRPNPWSPRGSHTTAITQCRGHA [HIP1]”, the median enrichment was 2.78. With “YSSSPVDEHLGWKFCSHTQDTAQDPAGVFFSVVRCTIGLMSIVLEDERKLRRTRSTDPDVIKHFVVSLSHR [BICD1]” the median enrichment was 3.59. Work on YSTVI [C5orf15] yielded a median enrichment of 0.763. In the case of YSV [ILF3], the median enrichment is reported as 0.744. With YSWANDH [SEMA4F] the median enrichment was 0.76. YSYSVMTLVIFCVL [HTR1D] showed a median enrichment of 15.3. In the case of “YTAQGSPTQAPTLLLLALLPASVQRTGRYWWEALCLAPQLPVWASKHNGPSRSLVETGVVVPNLPSALPLHRTQRPQALQGVL [AMIGO3]”, the median enrichment is reported as 8.02. “YTCGEGLSWTRPLPTASSLQVQLKPLSSGGRHVERAGRPTAAENRAGTGSSCSAFPSFGDAGSAAPKHLPAPHSTVSEDSSLL [CDC14B]” gave a median enrichment of 0.953. YTCPYSSRALNLLLTNHLLRC [KCNU1] was tested, and the median enrichment was 11.9. YTDYIGSFELTSDKGGKFRQHYDLINFIF [MSH6] was tested, and the median enrichment was 21.1. YTHMYDPYKCFKILKM [TRDN] showed a median enrichment of 11.1. YTKYLKMGIILI [ST8SIA6] showed a median enrichment of 10.3. For YTLENMYVWLIKCFKLN [NOTCH2NLA], the median enrichment was 7.83. YTLGKITYLSSCE [OR10G8] gave a median enrichment of 13.7. Work on YTPLCHFSGDPAFLIWK [CENPE] yielded a median enrichment of 5.97. YTPLFVVHYFD [KCNQ2] was tested, and the median enrichment was 7.27. In the case of YTPNNLLPPLAPVAYISS [TMEM169], the median enrichment is reported as 11.3. In the case of YTQKTNSIQSQ [ENDOD1], the median enrichment is reported as 1.93. Substance YTSGKKIFTCAGL [DDX46] has a median enrichment of 3.47. With YTSRTAT [NCOA6] the median enrichment was 0.753. Substance YTSVLNQDLTQKD [GTF2IRD1] has a median enrichment of 0.784. With YTTMYFNKDHQC [LRP2BP] the median enrichment was 1.43 and 3.14. “YVAMVKVSVAAAAMASRRRCWDCFALEPASGCPLQWLCYCMDCILDFMCMSQ [DYNLL2]” showed a median enrichment of 10.8. Work on YVCAEESKTPFRATIPQ [SLC22A25] yielded a median enrichment of 1.62. Substance YVCCLPSPSGHTLLYHTTGLDSGWRQIDTV [LIG3] has a median enrichment of 5.91. YVD [GLUL] gave a median enrichment of 0.387. YVDLRQTLGGVKESHRYPKE [MAGEH1] showed a median enrichment of 3.34. YVEGYKC [FIBIN] gave a median enrichment of 1.05. YVFLKIKLKKEIFFLIKL [GALNT3] gave a median enrichment of 6.22. Substance YVFLQCVLQARFIITYRFMISKIK [CLEC3A] has a median enrichment of 9.75. With YVFVIFNCSML [CRISP1] the median enrichment was 8.9. YVGRSPRPLPSSGDNQQ [CPNE9] gave a median enrichment of 0.56. YVHGLSLYPTALLCDSLMKLVTFTSQNFG [KDM4D] showed a median enrichment of 7.32. Substance YVI [UPRT] has a median enrichment of 1.22. With “YVLCCIPFSFLQMTMNFKLWGQCCNIFTFSNSQNLKNVKLCLVCFS [INPP4B]” the median enrichment was 5.86. YVLCYNGVIVPKCPH [OR51F2] was tested, and the median enrichment was 5.24. Substance YVLIGLPAGCDSKA [CBX2] has a median enrichment of 14. Work on YVLILPSH [HSPA4L] yielded a median enrichment of 10.7. Substance YVLRWNSLGEHLMSQPIQLPHNPAEGRVRGE [WDR62] has a median enrichment of 7.76. In the case of YVNV [CLEC2B], the median enrichment is reported as 0.896. YVPTK [ZNF334] showed a median enrichment of 0.591. With YVPVSPFIAAFPWGRQ [CXCR5] the median enrichment was 6.43 and 2.95. YVRTVG [UFD1] was tested, and the median enrichment was 3.02. Substance “YVTTPRSSAFKTKRDWGSGEGEEEQEEKKYSELLQVTLIKNLL [NR5A2]” has a median enrichment of 8.46. YVYLFLQEI [PI15] gave a median enrichment of 4.25. For YWAPSL [MSN], the median enrichment was 2.04. YWCGK [NME7] was tested, and the median enrichment was 2.52. Work on YWELLWQVPPE [C1orf115] yielded a median enrichment of 3.92. YWENPLLVHLKTPNSTIICQEIKRTTP [PCP4] showed a median enrichment of 13.6. With YWVFGLTGARMDLQRQL [GPR149] the median enrichment was 5.42. For “YWWLVVMNSYSVASSLPASHLPSTSQLLPSLTEANIFI [NTRK3]”, the median enrichment was 23.2. YYCTELP [ADAM18] gave a median enrichment of 4.78. Substance YYHMFSWYVN [ABHD10] has a median enrichment of 17.6. With “YYSKIKYINIYIYIYFRKKKKTNKQKNPTPVDTLIFPNEDFIYGMEWKKKQLF [BMP2]” the median enrichment was 49. Substance “YYVIRNLVAWPYLAAREPGRYVAGRLGMCPVKNSVDSLIKKKRKKDTMGTLYLVFILCMYRSSKKLHRISVTLYASGKQDWEL [CFAP61]” has a median enrichment of 41.5. Substance YYY [Tyr03] has a median enrichment of 1.14. Work on YYYLQMKLTYTDLSSLMKKIRCYPIK [RBM11] yielded a median enrichment of 13. For YYYY [Tyr04], the median enrichment was 4.17. Substance YYYYY [Tyr05] has a median enrichment of 22.4. In the case of YYYYYY [Tyr06], the median enrichment is reported as 2.81. For YYYYYYY [Tyr07], the median enrichment was 3.18. Work on YYYYYYYY [Tyr08] yielded a median enrichment of 5.87. In the case of YYYYYYYYY [Tyr09], the median enrichment is reported as 4.03. Work on YYYYYYYYYY [Tyr10] yielded a median enrichment of 6.9. In the case of ZNF28, the median enrichment is reported as 1.64.
